Laboratory results: patent publication US20220135665A1

Target: recombinant human VEGF165 protein (human) (UniProt P15692)
Test: cell-based or functional assay

EYLEA (Aflibercept) (Fc fusion), sequence (chain): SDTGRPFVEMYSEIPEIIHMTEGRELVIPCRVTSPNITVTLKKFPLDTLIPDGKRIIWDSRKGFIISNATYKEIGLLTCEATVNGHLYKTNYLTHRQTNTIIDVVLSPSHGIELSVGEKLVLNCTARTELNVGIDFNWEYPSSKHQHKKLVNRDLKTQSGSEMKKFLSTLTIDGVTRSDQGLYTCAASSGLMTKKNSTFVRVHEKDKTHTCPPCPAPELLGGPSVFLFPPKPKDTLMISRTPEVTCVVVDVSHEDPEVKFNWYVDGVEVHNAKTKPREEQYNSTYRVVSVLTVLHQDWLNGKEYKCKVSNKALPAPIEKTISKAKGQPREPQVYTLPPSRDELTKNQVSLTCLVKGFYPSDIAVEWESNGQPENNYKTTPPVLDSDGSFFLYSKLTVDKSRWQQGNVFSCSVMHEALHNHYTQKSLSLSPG
Conbercept (Fc fusion), sequence (chain): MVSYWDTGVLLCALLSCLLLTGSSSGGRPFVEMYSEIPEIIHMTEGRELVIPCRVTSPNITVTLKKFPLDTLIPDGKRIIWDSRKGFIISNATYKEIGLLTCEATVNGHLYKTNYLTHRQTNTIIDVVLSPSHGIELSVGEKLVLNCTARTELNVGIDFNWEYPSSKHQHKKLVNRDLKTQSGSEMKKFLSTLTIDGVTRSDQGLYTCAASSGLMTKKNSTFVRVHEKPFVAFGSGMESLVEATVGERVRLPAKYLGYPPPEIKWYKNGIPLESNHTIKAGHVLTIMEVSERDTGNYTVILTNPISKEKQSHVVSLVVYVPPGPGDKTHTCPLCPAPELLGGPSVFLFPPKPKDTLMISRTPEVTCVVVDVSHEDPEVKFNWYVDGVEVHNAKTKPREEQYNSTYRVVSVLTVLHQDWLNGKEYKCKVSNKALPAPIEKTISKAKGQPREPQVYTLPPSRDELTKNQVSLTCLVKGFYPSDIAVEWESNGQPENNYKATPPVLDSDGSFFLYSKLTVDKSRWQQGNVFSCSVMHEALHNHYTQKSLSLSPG

What does the source list for Conbercept (Fc fusion)?
EC50(nM), neutralization of HUVEC proliferation, VEGF165 at 10 ng/mL: 0.18 nM; EC50(nM), neutralization of HUVEC proliferation, VEGF165 at 100 ng/mL: 2.86 nM; EC50(nM), neutralization of HUVEC proliferation, VEGF165 at 1000 ng/mL: 29 nM; Maximum neutralization rate (%), VEGF165 at 10 ng/mL: 102%; Maximum neutralization rate (%), VEGF165 at 100 ng/mL: 99.7%; Maximum neutralization rate (%), VEGF165 at 1000 ng/mL: 108%

With EYLEA (Aflibercept) (Fc fusion) as the substance, how does the EC50(nM), neutralization of HUVEC proliferation, VEGF165 at 10 ng/mL read?
The EC50(nM), neutralization of HUVEC proliferation, VEGF165 at 10 ng/mL was 0.15 nM.

And the EC50(nM), neutralization of HUVEC proliferation, VEGF165 at 100 ng/mL?
The EC50(nM), neutralization of HUVEC proliferation, VEGF165 at 100 ng/mL was 2.56 nM.

What about the EC50(nM), neutralization of HUVEC proliferation, VEGF165 at 1000 ng/mL of the same substance?
Its EC50(nM), neutralization of HUVEC proliferation, VEGF165 at 1000 ng/mL is 32.4 nM.

And the Maximum neutralization rate (%), VEGF165 at 10 ng/mL?
The Maximum neutralization rate (%), VEGF165 at 10 ng/mL was 92.7%.

And the Maximum neutralization rate (%), VEGF165 at 100 ng/mL?
The Maximum neutralization rate (%), VEGF165 at 100 ng/mL was 89.6%.

And the Maximum neutralization rate (%), VEGF165 at 1000 ng/mL?
Its Maximum neutralization rate (%), VEGF165 at 1000 ng/mL is 76.7%.
